Read-outs that look alike come from different tables or passages of the source.
Tests used:
chymotrypsin enzyme [1] = test: In vitro enzyme resistance (chymotrypsin) of HIM2 and its complexes; details: chymotrypsin digest, 37° C., pH about 7.4
Procedure: Lyophilized chymotrypsin enzyme was resuspended in 1 mM HCl to a concentration of 7.53 U/mL. A 1.53 mL aliquot of each sample was added to sample tubes and 0.850 mL into control tubes. Samples were tested in duplicate along with four control tubes per sample. […] Then 17 μL of chymotrypsin enzyme was added to each sample tube. Five μL of 1 mM HCl was added to each control tube. Immediately following the additions, 200 μL was removed from the sample and the control tubes and placed into 50 μL of 1% TFA previously aliquoted out into centrifuge tubes. This sample serves as T=0.
(§1) The control procedure was repeated at the following intervals: 0, 8, 15, 30 minutes. For T-type and R-type samples, the procedure was repeated at the following intervals: 0, 5, 8, 12, 30, 40 and 60 minutes. The control procedure for the Zn complexes was repeated at the following intervals: 0, 12, 40 and 60 minutes. Samples were stored at −20° C. until analysis can occur via HPLC. HPLC was performed to determine percent degradation relative to the respective T=0 minute for each digest. The natural log of the percent remaining was plotted versus time and a linear regression run for each digest. The half life was calculated using the equation: t=−0.693/slope.

[2] = type: physicochemical
Procedure: Two hundred microliters of 0.1M Phosphate Buffer Saline (PBS, filtered, pH=7.4) was added to a 1 mL conical reaction vial. To this vial, a small amount of sample was added slowly until saturation is observed. Periodically, the solution was vortexed. […] After centrifugation, 10 μL of the sample was removed from the supernatant and diluted in 490 μL buffer (0.1 M PBS). This diluted sample was analyzed via HPLC to determine its' concentration.

male CF-1 mice = test: Extended Mouse Blood Glucose Assay (MBGA); type: in vivo; details: subcutaneous
Procedure: Six paired-dose groups of 5 male CF-1 mice (Charles River Laboratories; 25-30 g) received subcutaneous injections of either the insulin compound conjugate (test article) or recombinant human insulin. The test article was reconstituted with phosphate buffer (0.01 M, a pH of about 7.4) containing 0.1% w/w bovine serum albumin and dosed at 100, 66.6, 43.3, 30, 20, and 13.3 μg/kg. Insulin compound was reconstituted with phosphate buffer (0.01 M, a pH of about 7.4) containing 0.1% w/w bovine serum albumin and dosed at 50, 33.3, 21.7, 15, 10, and 6.7 μg/kg. […] Blood samples were collected in heparin tubes for glucose assay. If glucose assay was delayed, the tubes were stored in ice water and re-warmed to room temperature before assay.
Plasma glucose was measured with a glucometer (e.g., One Touch® Basic; Lifescan), which was calibrated at the beginning of each day of use according to the manufacturer's instructions. The potency of the insulin compound conjugate was then calculated relative to the standard curve that was generated for the recombinant human insulin response. Calculations were based upon the assumption that recombinant human insulin has a potency of 27.4 IU/mg.

chymotrypsin enzyme [3] = test system: chymotrypsin enzyme
Procedure: Lyophilized chymotrypsin enzyme was resuspended in 1 mM HCl to a concentration of ˜7.53 U/mL. A 1.53 mL aliquot of each sample was added to sample tubes and 0.850 mL into control tubes. Samples were tested in duplicate along with four control tubes per sample. […] Then 17 μL of chymotrypsin enzyme was added to each sample tube. Five μL of 1 mM HCl was added to each control tube. Immediately following the additions, 200 μL was removed from the sample and the control tubes and placed into 50 μL of 1% TFA previously aliquoted out into centrifuge tubes. This sample serves as T=0.
as §1

## HIM2 (T-type zinc complex): T-type zinc complex of HIM2, 0.55% w/w zinc
Chymotrypsin enzyme [1]; 0.3 mg/mL protein
  T half: 12 to 15 min

## Reaction 9.5.2: T-Type Zn Complex of IN105 Monoconjugate (1 g Scale)
[2]
  Solubility (mg/mL) in a pH of about 7.4, 0.1M phosphate buffer: 10-20 mg/mL

## Reaction 9.6.2: R-Type Zn Complex of IN105 Conjugate at 5 g Scale
[2]
  Solubility: 10 to 25 mg/mL

## Reaction 9.5.1: T-Type Zn Complex of IN105 Monoconjugate (10 g/L Concentration)
[2]
  Solubility (mg/mL) in a pH of about 7.4, 0.1M phosphate buffer: 80-85 mg/mL

## HIM2 (R-type zinc/protamine complex): R-type zinc complex of HIM2 with protamine
Male CF-1 mice
  glucose lowering effect at 30 and 90 minutes post dose: greater glucose reduction at 30 minutes than 90 minutes
Chymotrypsin enzyme [1]; 0.6 mg/ml protein
  T half: 95 to 120 min

## Reaction 9.3.3: R-type Zn Complex of HIM2 with Protamine at Acidic pH
[2]; pH 7.4
  Solubility: 36.78 mg/mL

## HIM2 (R-type zinc complex): R-type zinc complex of HIM2, 1.1% w/w zinc
Chymotrypsin enzyme [1]; 0.3 mg/mL protein
  T half: 19 to 21 min

## HIM2: human insulin monoconjugate with a modifying moiety coupled at B29
Male CF-1 mice; plasma glucose 30 minutes post dose, relative to recombinant human insulin
  biopotency (MBGA) on complexation with Zn++: not significantly reduced

## IN105 (T-type zinc complex): T-type Zn complex of IN105, 1.88% w/w zinc; same zinc content as reaction 9.5.3
Chymotrypsin enzyme [3]
  T half: 54.8 min
